Test results reported in PMC11266705, “Elf1 promotes transcription-coupled repair in yeast by using its C-terminal domain to bind TFIIH” (Nature Communications, 2024).
Where two headings read alike, the source gives them in different places.

What was measured:
[1] = target: p62 PH domain (Homo sapiens) (UniProt P32780); conditions: cited from earlier work
[2] = target: p62 (Tfb1) PH domain (Saccharomyces cerevisiae) (UniProt P32776); conditions: cited from earlier work
[3] = target: p62 PH domain (Homo sapiens) (UniProt P32780); conditions: cited from earlier work; remark: listed apart in the source
[4] = target: p62 PH domain (Homo sapiens) (UniProt P32780); conditions: cited from earlier work; remark: listed apart in the source
[5] = target: T1, PH domain (1–115) of TFIIH p62 subunit (S. cerevisiae, UniProt P32776 1-115); experiment: pull-down; GST beads with GST-tagged Elf1 proteins mixed with purified PH domain of p62; 23 °C, 1 h; washed twice in 20 mM HEPES pH 7.4, 5% glycerol; SDS-PAGE; conditions: both partners purified
T1 construct: also called PH domain of p62; p62 PH domain; source: E. coli Rosetta 2(DE3), purified (Glutathione Sepharose, released by PreScission protease cleavage)
T1 sequence (looked up): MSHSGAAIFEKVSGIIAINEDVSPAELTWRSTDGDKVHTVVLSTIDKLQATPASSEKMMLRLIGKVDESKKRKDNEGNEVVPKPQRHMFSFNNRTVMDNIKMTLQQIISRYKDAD

[6] = target: T1, PH domain (1–115) of TFIIH p62 subunit; experiment: BLI; Octet K2; GST-Elf1-CTD immobilised on GST-specific biosensors; PH domain of p62 at 30, 15, 7.5, 3.75 and 0 µM; 20 mM Tris-HCl pH 7.5, 5% glycerol, 1 mM DTT; association 2 min, dissociation 3 min; conditions: both partners purified

p62 PH domain (Homo sapiens), sequence (P32780 1-108): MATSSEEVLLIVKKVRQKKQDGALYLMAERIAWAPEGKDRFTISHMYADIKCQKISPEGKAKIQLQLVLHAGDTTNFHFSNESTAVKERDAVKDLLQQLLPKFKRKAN

Question: With DP1 TIR (from UniProt Q14186) as the molecule, how does the Kd [1] read?
Answer: The Kd was 35.3 µM.

Question: With Rad4 TIR (from UniProt P14736) as the molecule, how does the Kd [2] read?
Answer: The Kd was 0.05 µM.

Question: With TFIIEα TIR (from UniProt P29083) as the molecule, how does the Kd [3] read?
Answer: Its Kd is 0.045 µM.

Question: With UVSSA TIR (from UniProt Q2YD98) as the molecule, how does the Kd [4] read?
Answer: The Kd was 0.071 µM.

B1: GST-Elf1 residues 85–122 (domain or fragment, S. cerevisiae, UniProt P36053 85-122, looked up)
chain: GSDTDDGDEGSDSDYESDSEQDAKTQNDGEIDSDEEEV
notes: source: E. coli Rosetta 2(DE3), purified (Glutathione Sepharose, Superdex 200)
Question: Does B1 bind [5]?
Answer: Result: binds

B2: GST-Elf1 residues 85–113 (domain or fragment, S. cerevisiae, UniProt P36053 85-113, looked up)
chain: GSDTDDGDEGSDSDYESDSEQDAKTQNDG
notes: elongation factor-1 (Elf1), S. cerevisiae, residues 85-113 (truncated CTD); source: E. coli Rosetta 2(DE3), purified (Glutathione Sepharose, Superdex 200)
Question: Does B2 bind [5]?
Answer: Result: binds

B3: GST-Elf1-CTD (residues 85–145) (domain or fragment, S. cerevisiae, UniProt P36053 85-145, looked up)
chain: GSDTDDGDEGSDSDYESDSEQDAKTQNDGEIDSDEEEVDSDEERIGQVKRGRGALVDSDDE
notes: also called WT CTD; Elf1 C-terminal domain; source: E. coli Rosetta 2(DE3), purified (Glutathione Sepharose, Superdex 200)
Question: Which Kd [6] does the source give for B3 here?
Answer: Its Kd is 3.82 µM.

B4: GST-Elf1-CTD I115A (residues 85–145) (domain or fragment, S. cerevisiae, UniProt P36053 85-145, looked up)
chain: GSDTDDGDEGSDSDYESDSEQDAKTQNDGEADSDEEEVDSDEERIGQVKRGRGALVDSDDE
notes: also called I115A control; source: E. coli Rosetta 2(DE3), purified (Glutathione Sepharose, Superdex 200)
Question: Does B4 bind [5]?
Answer: Result: binds

B5: GST-Elf1-CTD Y99A mutant (residues 85–145) (domain or fragment, S. cerevisiae, UniProt P36053 85-145, looked up)
chain: GSDTDDGDEGSDSDAESDSEQDAKTQNDGEIDSDEEEVDSDEERIGQVKRGRGALVDSDDE
notes: also called Y99A GST-Elf1-CTD; Y99A mutant CTD; source: E. coli Rosetta 2(DE3), purified (Glutathione Sepharose, Superdex 200)
Question: For B5, which Kd [6] is on record?
Answer: The Kd was 7.32 µM.
